# Assay results reported in patent US20260374889 (published 2026).
# T1: human BCMA on CHO cells (human)
# T1 chain: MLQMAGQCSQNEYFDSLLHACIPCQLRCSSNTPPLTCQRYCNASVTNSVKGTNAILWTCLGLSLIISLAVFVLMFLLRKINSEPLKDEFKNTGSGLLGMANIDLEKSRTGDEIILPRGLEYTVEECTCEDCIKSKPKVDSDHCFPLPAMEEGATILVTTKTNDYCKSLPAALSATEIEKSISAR
# Biological target: T1, human BCMA on CHO cells
# Assay: FACS
row,EC50 [nM],Binder
1,16.3,"P1AG7207 BCMA arm (antibody, V domains shown) VH: EVQLLESGGGLVQPGGSLRLSCAASGFTFSNAWMDWVRQAPGKGLEWVSQITAKSNNYATYYADSVKGRFTISRDNSKNTLYLQMNSLRAEDTAVYYCTDDGYHWGQGTLVTVSS VL: DIQMTQSPSSLSASVGDRVTITCRASEDIRNGLAWYQQKPGKAPKLLIYNANSLHTGVPSRFSGSGSGTDFTLTISSLQPEDFATYYCEDTSKYPYTFGQGTKLEIK"
2,18.1,"P1AG7196 BCMA arm (antibody, V domains shown) VH: EVQLLESGGGLVQPGGSLRLSCAASGFTFSNAWMDWVRQAPGKGLEWVSQITAKSNNYATYYADSVKGRFTISRDNSKNTLYLQMNSLRAEDTAVYYCTDDGYHWGQGTLVTVSS VL: DIQMTQSPSSLSASVGDRVTITCRASEDIRNGLAWYQQKPGKAPKLLIYNANSLHTGVPSRFSGSGSGTDFTLTISSLQPEDFATYYCEDTSKYPYTFGQGTKLEIK"
3,25.6,"P1AG7285 BCMA arm (antibody, V domains shown) VH: QVQLVQSGAEVKKPGASVKVSCKASGYTFTNYWMHWVRQAPGQGLEWMGIIHPNSGSTNYNEKFQGRVTMTRDTSTSTVYMELSSLRSEDTAVYYCARGIYDYPFAYWGQGTLVTVSS VL: DIQMTQSPSSLSASVGDRVTITCRASESVSIHGTHLMHWYQQKPGKAPKLLIYAASSLQSGVPSRFSGSGSETDFTLTISSLQPEDFATYYCQQSIEDPYTFGGGTKVEIK"
4,13.8,"P1AG7200 BCMA arm (antibody, V domains shown) VH: QVQLVQSGAEVKKPGASVKVSCKASGYTFTNYWMHWVRQAPGQGLEWMGIIHPNSGSTNYNEKFQGRVTMTRDTSTSTVYMELSSLRSEDTAVYYCARGIYDYPFAYWGQGTLVTVSS VL: DIQMTQSPSSLSASVGDRVTITCRASESVSIHGTHLMHWYQQKPGKAPKLLIYAASNLESGVPSRFSGSGSGTDFTLTISSLQPEDFATYYCQQSIEDPYTFGGGTKVEIK"
5,19.8,"P1AG7191 BCMA arm (antibody, V domains shown) VH: QVQLVQSGAEVKKPGASVKVSCKASGYTFTNYWMHWVRQAPGQGLEWMGIIHPNSGSTNYNEKFQGRVTMTRDTSTSTVYMELSSLRSEDTAVYYCARGIYDYPFAYWGQGTLVTVSS VL: DIQMTQSPSSLSASVGDRVTITCRASESVSIHGTHLMHWYQQKPGKAPKLLIYAASSLQSGVPSRFSGSGSETDFTLTISSLQPEDFATYYCQQSIEDPYTFGGGTKVEIK"
6,16.5,"P1AG7215 BCMA arm (antibody, V domains shown) VH: QVQLVQSGAEVKKPGASVKVSCKASGYTFTNYWMHWVRQAPGQGLEWMGIIHPNSGSTNYNEKFQGRVTMTRDTSTSTVYMELSSLRSEDTAVYYCARGIYDYPFAYWGQGTLVTVSS VL: DIQMTQSPSSLSASVGDRVTITCRASESVSIHGTHLMHWYQQKPGKAPKLLIYAASNLESGVPSRFSGSGSGTDFTLTISSLQPEDFATYYCQQSIEDPYTFGGGTKVEIK"
7,5.55,"BCMA (PR)-CD28v8 P1AF7062, BCMA arm (antibody, V domains shown) VH: EVQLLESGGGLVQPGGSLRLSCAASGFTFSSYAMNWVRQAPGKGLEWVSAITASGGSTYYADSVKGRFTISRDNSKNTLYLQMNSLRAEDTAVYYCARYWPMSLWGQGTLVTVSS VL: EIVLTQSPGTLSLSPGERATLSCRASQSVSAYYLAWYQQKPGQAPRLLMYDASIRATGIPDRFSGSGSGTDFTLTISRLEPEDFAVYYCQQYERWPLTFGQGTKVEIKR"
8,7.63,"BCMA (PR)-CD28v15 P1AE9053, BCMA arm (antibody, V domains shown) VH: EVQLLESGGGLVQPGGSLRLSCAASGFTFSSYAMNWVRQAPGKGLEWVSAITASGGSTYYADSVKGRFTISRDNSKNTLYLQMNSLRAEDTAVYYCARYWPMSLWGQGTLVTVSS VL: EIVLTQSPGTLSLSPGERATLSCRASQSVSAYYLAWYQQKPGQAPRLLMYDASIRATGIPDRFSGSGSGTDFTLTISRLEPEDFAVYYCQQYERWPLTFGQGTKVEIKR"
